# Source: US20210032313A1 (Daiichi Sankyo, published 2021)
# T1: mouse KLK14 (mouse, UniProt Q8CGR5 24-250)
# T1 sequence: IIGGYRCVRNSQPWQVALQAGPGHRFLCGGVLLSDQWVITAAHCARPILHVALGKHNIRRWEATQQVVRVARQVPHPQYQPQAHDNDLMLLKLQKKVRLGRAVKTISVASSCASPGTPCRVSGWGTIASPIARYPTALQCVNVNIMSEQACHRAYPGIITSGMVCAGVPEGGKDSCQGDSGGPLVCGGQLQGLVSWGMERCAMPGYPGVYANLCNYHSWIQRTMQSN
# T2: mouse KLK5 (mouse)
# T2 chain: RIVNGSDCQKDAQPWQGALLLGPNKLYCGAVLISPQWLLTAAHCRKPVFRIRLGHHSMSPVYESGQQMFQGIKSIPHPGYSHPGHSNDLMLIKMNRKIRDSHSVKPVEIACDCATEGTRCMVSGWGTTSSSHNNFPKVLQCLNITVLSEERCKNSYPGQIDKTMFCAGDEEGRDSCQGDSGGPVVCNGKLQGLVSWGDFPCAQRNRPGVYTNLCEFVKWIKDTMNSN
# T3: KLK12 (human, UniProt Q9UKR0)
# T3 construct: commercial enzyme (R&D Systems, 3095-SE); 0.1 µg/mL in the assay; substrate Boc-Val-Pro-Arg-AMC 100 µM; also called Human KLK12; hKLK12
# T3 sequence (protease, looked up): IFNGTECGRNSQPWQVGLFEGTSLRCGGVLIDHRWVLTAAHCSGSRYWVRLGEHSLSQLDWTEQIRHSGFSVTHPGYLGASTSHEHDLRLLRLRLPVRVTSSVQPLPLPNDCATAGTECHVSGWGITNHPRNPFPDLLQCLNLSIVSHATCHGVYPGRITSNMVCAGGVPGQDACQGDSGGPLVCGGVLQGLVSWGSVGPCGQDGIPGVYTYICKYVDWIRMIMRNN
# T4: human KLK5 (human, UniProt Q9Y337 67-293)
# T4 construct: also called hKLK5; active KLK5; not shown: C-terminal tag with His tag, encoded by primers 3/4
# T4 sequence: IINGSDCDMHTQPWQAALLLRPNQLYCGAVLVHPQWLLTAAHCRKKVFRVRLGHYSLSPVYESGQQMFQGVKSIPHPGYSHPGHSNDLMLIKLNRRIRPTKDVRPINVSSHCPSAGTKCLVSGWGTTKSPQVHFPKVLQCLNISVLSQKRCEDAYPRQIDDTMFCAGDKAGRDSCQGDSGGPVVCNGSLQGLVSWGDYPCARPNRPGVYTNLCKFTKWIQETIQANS
# Tests used:
# mouse KLK7 = mouse KLK7 (mouse, UniProt Q91VE3 26-249); test: cell-based or functional assay
# mouse KLK14 = biological target: T1, mouse KLK14; test: cell-based or functional assay
# mouse KLK5 = biological target: T2, mouse KLK5; test: cell-based or functional assay
# KLK12 = biological target: T3, KLK12; test: fluorogenic peptide substrate cleavage, 1 µM inhibitor
# Protocol: FIG. 3G includes graphs to evaluate the cross-reactivity of each inhibitory peptide with proteases, using the degradation of a peptide substrate as an index. For evaluating the Human KLK7 inhibitory activity, hKLK7 with a final concentration of 1 μg/mL and a substrate peptide Mca-Arg-Pro-Lys-Pro-Val-Glu-Nval-Trp-Arg-Lys (Dnp)-NH₂ (R&D Systems, Inc., ES002) with a final concentration of 20 μM were used. For evaluating the Human KLK8 inhibitory activity, hKLK8 (UniProt: 060259, prepared by the inventors) with a final concentration of 5 nM and a substrate peptide Boc-Val-Pro-Arg-AMC (R&D Systems, Inc., ES011) with a final concentration of 100 μM were used. For evaluating the Human KLK12 inhibitory activity, hKLK12 (R&D Systems, Inc., 3095-SE) with a final concentration of 0.1 μg/mL and a substrate peptide Boc-Val-Pro-Arg-AMC (R&D Systems, Inc., ES011) with a final concentration of 100 μM were used.
# (§1) The specificities for other proteases were evaluated using the degradation of a substrate peptide as an index. As in the method described in (3-1), 25 μL each of a protease and a sample diluted with an assay buffer were mixed (to a final concentration of sample of 1 μM), followed by a reaction at 37° C. for 20 minutes. Thereafter, 50 μL of a substrate diluted with an assay buffer was added thereto, and the fluorescence signal was measured using Enspire (PerkinElmer). An assay buffer (50 mM Tris, 150 mM NaCl, pH 8.0) was used for the evaluation of the protease activity, and a PROTEOSAVE® SS96F black plate (Sumitomo Bakelite Co., Ltd.) was used for the reaction and the measurement. The combinations of the protease and the substrate used for the evaluation of the specificity were as follows.
# bChymotrypsin = test: as above
# Protocol: FIG. 3A includes graphs to evaluate the cross-reactivity of each inhibitory peptide with proteases, using the degradation of a peptide substrate as an index. For evaluating the Bovine trypsin inhibitory activity, trypsin (Pierce, 20233) with a final concentration of 5 nM and a substrate peptide Boc-Val-Pro-Arg-AMC (R&D Systems, Inc., ES011) with a final concentration of 100 μM were used. For evaluating the Human trypsin inhibitory activity, trypsin (Sigma-Aldrich Co. LLC, T6424) with a final concentration of 1 nM and a substrate peptide Boc-Val-Pro-Arg-AMC (R&D Systems, Inc., ES011) with a final concentration of 100 μM were used. For evaluating the Bovine α-chymotrypsin inhibitory activity, chymotrypsin (Worthington Biochemical Corporation, LS001434) with a final concentration of 10 nM and a substrate peptide Suc-Leu-Leu-Val-Tyr-MCA (PEPTIDE […], INC., 3120-v) with a final concentration of 100 μM were used.
# as §1
# human KLK5 = biological target: T4, human KLK5; test: SPR, BIAcore T200; biotinylated KLK5 captured on chip, peptide as analyte; single cycle kinetics, 1:1 model
# Protocol: In order to measure the binding affinity of the KLK5 inhibitory peptides, surface plasmon resonance analysis was conducted using BIAcore T 200 (GE healthcare). A complementary strand of DNA of a streptavidin conjugate was captured by hybridization on Sensor Chip CAP (GE healthcare) on which single-stranded DNA immobilized. Next, KLK5 biotinylated using EZ-Link NHS-PEG4-Biotin (Thermo Fisher Scientific) was captured at a flow rate of 10 μL/min to immobilize about 10 RU. Thereafter, the KLK5 inhibitory peptide, serially diluted 2-fold with HBS-EP (0.625 to 10 nM), was added thereto as an analyte at a flow rate of 30 μL/min. In the BIAcore T 200 Evaluation software (version 2.0), kon and koff were calculated by analysis using Single cycle kinetics in a simple one-to-one Langmuir binding model. The dissociation constant KD was calculated as a ratio of koff/kₒₙ. Further, multiple KLK5 inhibitory peptides were measured by regenerating Sensor Chip CAP using a Regeneration buffer attached to a Biotin CAPture Kit (GE healthcare) and repeatedly capturing biotinylated KLK5.
# mouse KLK7, sequence (Q91VE3 26-249): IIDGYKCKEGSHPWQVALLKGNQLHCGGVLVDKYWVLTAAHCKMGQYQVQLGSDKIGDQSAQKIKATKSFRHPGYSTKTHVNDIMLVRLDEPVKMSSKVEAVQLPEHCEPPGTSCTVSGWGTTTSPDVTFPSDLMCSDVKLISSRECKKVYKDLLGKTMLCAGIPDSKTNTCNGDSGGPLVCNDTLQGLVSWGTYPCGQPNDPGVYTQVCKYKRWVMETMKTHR
IC50(nM) for mKLK7 (mouse KLK7) [nM],IC50(nM) for mKLK14 (mouse KLK14) [nM],IC50(nM) for mKLK5 (mouse KLK5) [nM],binding result (KLK12),binding result (bChymotrypsin),Kd (human KLK5) [nM],koff (human KLK5) [s⁻¹],kon (human KLK5) [M⁻¹ s⁻¹],Binder
181,40,< 0.5,binds,binds,≤ 0.001,≤ 1e-06,940000,KLK5/KLK14 inhibitory peptide K51069 (SPINK2 mutant peptide made in E. coli) GPQFGLFSKYRTPNCSQVVETYCNRDYDPVCGSDMSTYANECTLCMKIREGGHNIKIIRNGPCGG
248,108,< 0.5,binds,binds,≤ 0.0011,≤ 1e-06,940000,KLK5/KLK14 inhibitory peptide K50015 (SPINK2 mutant peptide made in E. coli) GPQFGLFSKYRTPNCYDTTTHYCSREYDPVCGSDMSTYANECTLCMKIREGGHNIKIIRNGPCGG
